# Source: paper PMC3960972 (The Biochemical journal, 2013)
# Key:
# N[C@@H](CS)C(=O)O = assay: HPLC-based steady-state kinetics; assay type: biochemical, Staphylococcus aureus; settings: […] Mn2+; fosfomycin ([…])
# SaFosB = SaFosB (Staphylococcus aureus, UniProt Q5HDM4); assay: HPLC-based enzyme inhibition kinetics, purified enzyme; assay type: biochemical
Ki (SaFosB) [mM],Compound,Km (N[C@@H](CS)C(=O)O) [mM],kcat (N[C@@H](CS)C(=O)O) [s⁻¹],kcat/Km (N[C@@H](CS)C(=O)O) [M⁻¹ s⁻¹]
,SaFosB (Staphylococcus aureus subsp. aureus COL),13,2.3 ± 0.2,175 ± 44
3.9,N[C@@H](CO)C(=O)N[C@H]1[C@@H](O[C@@H](CC(=O)O)C(=O)O)O[C@H](CO)[C@@H](O)[C@@H]1O [BOH],,,
